In test [1] the target is CD46 on Colo205 cells (human) (UniProt P15529). Briefly: FACS, Colo205 cells that express CD46; EC50 at pH 7.4 over EC50 at pH 6.0. A general note: In flow cytometry, cells or beads pass a laser one at a time.
The target in test [2] is human CD46 expressed on 293 cells (human) (UniProt P15529). Briefly: FACS, 293 cells expressing human CD46; EC50 at pH 7.4 over EC50 at pH 6.0.
For test [3], the target named is CD46 on Colo205 cells (human) (UniProt P15529). Briefly: FACS, Colo205 cells that express CD46, pH 7.4.
Test [4] addresses human CD46 expressed on 293 cells (human) (UniProt P15529). Briefly: FACS, 293 cells expressing human CD46, pH 6.0.
The target in test [5] is recombinant human CD46 antigen (human) (UniProt P15529). Briefly: ELISA, coated human CD46; EC50 at pH 7.4 over EC50 at pH 6.0. In general terms: In an ELISA, binding on a coated surface is turned into a signal by an enzyme label.
Test [6] addresses CD46 on Colo205 cells (human) (UniProt P15529). Briefly: cell-based or functional assay.
For test [7], the target named is human CD46 expressed on 293 cells (human) (UniProt P15529). Nature of the test: cell-based or functional assay.
The target in test [8] is CD46 on Colo205 cells (human) (UniProt P15529). Nature of the test: FACS, Colo205 cells that express CD46, pH 6.0.
Test [9] deals with human CD46 expressed on 293 cells (human) (UniProt P15529). Nature of the test: FACS, 293 cells expressing human CD46, pH 7.4.
Test [10] has as its target recombinant human CD46 antigen (human) (UniProt P15529). Nature of the test: pH range ELISA (pH 5.5 to 7.4), coated human CD46.

Residue numbers refer to the chain shown, from its start.

B1: Benchmark (BM) BA-133-00-01 (antibody, V domains shown)
VH: QVQLQESGPGLVKPSETLSLTCTVSGGSVSSYDISWIRQPPGKGLEWIGVIWTDGGTNYNSAFMSRVTISVDTSKNQFSLKLSSVTAADTAVYYCARVYDGYPWFAYWGQGTLVTVSS
VL: DIQMTQSPSSLSASVGDRVTITCRASQGISNYLNWYQQKPGKAPKLLIYYTSSLHSGVPSRFSGSGSGTDFTLTISSLQPEDFATYYCQQYIKLPWTFGGGTKLEIKR
The EC50 is the midpoint of the concentration-response curve. Low values mean higher potency in that assay, high ones lower potency in that assay. For the molecule B1, the Ratio (pH 7.4/6.0) in test [1] came out at 2.6. The Ratio (pH 7.4/6.0) in [2] turned out to be 2.5. Moreover, in [3], the EC50 is 0.513 µg/mL. Also, the EC50 in test [4] was determined as 0.147 µg/mL. In [5], the ratio (ph 7.4/pH 6.0) amounted to 1.31. Moreover, in test [6], the IC50 of inhibition (cytotoxicity) of Colo205 cells that express CD46, pH 6.0 (test article ADC, CellTiter-Glo) was 4.91 ng/mL; the IC50 of inhibition (cytotoxicity) of Colo205 cells that express CD46, pH 7.4 (test article ADC, CellTiter-Glo) came out at 11.6 ng/mL; the Ratio (pH 7.4/6.0) of the cytotoxicity IC50 on Colo205 cells is 2.37. Further, in test [7], the IC50 of in vitro cell killing of 293 cells expressing human CD46, pH 6.0 (test article ADC, CellTiter-Glo) was found to be 15.8 ng/mL; the IC50 of in vitro cell killing of 293 cells expressing human CD46, pH 7.4 (test article ADC, CellTiter-Glo) is 23.6 ng/mL; the Ratio (pH 7.4/6.0) of the killing IC50 on 293 cells expressing human CD46 is 1.5. The molecule further gave an EC50 in test [8] of 0.201 µg/mL. Besides, the EC50 in test [9] worked out at 0.368 µg/mL.

B2: BA-133-04-04 (antibody, V domains shown)
VH: EVQLVESGGGLVQPGGSLRLSCAASGGSVSSYDISWIRQSPSRGLEWLGVIWTDGGTNYNSAFMSRFTISRDDSKNTAYLQMNSLKTEDTAVYYCERVYDGYPWFAYWGQGTLVTVSS
VL: AIQLTQSPSSLSASVGDRVTITCRASQGISNYLNWYLQKPGQSPQLLIYYTSSLHEGVPDRFSGSGSGTDFTLKISRVEAEDVGVYYCQQYIKLPWTFGQGTKVEIK
As for B2, in test [1], the Ratio (pH 7.4/6.0) was determined as 3.9. Also, in test [2], the Ratio (pH 7.4/6.0) came to 2.7. Further, the EC50 in test [3] was found to be 0.96 µg/mL. In [10], the pH inflection point was 6.7 pH. The molecule further displayed an EC50 in test [4] of 0.241 µg/mL. The ratio (ph 7.4/pH 6.0) in test [5] is 3.63. In test [6], the IC50 of inhibition (cytotoxicity) of Colo205 cells that express CD46, pH 6.0 (test article ADC, CellTiter-Glo) came out at 6.58 ng/mL; the IC50 of inhibition (cytotoxicity) of Colo205 cells that express CD46, pH 7.4 (test article ADC, CellTiter-Glo) worked out at 56 ng/mL; the Ratio (pH 7.4/6.0) of the cytotoxicity IC50 on Colo205 cells stood at 8.51. Also, in [7], the IC50 of in vitro cell killing of 293 cells expressing human CD46, pH 6.0 (test article ADC, CellTiter-Glo) was 13.7 ng/mL; the IC50 of in vitro cell killing of 293 cells expressing human CD46, pH 7.4 (test article ADC, CellTiter-Glo) is 39.9 ng/mL; the Ratio (pH 7.4/6.0) of the killing IC50 on 293 cells expressing human CD46 worked out at 2.91. In test [8], this molecule came in with an EC50 of 0.246 µg/mL. The same molecule showed an EC50 in [9] of 0.647 µg/mL.

B3: BA-133-04-02 (antibody, V domains shown)
VH: B2 VH
VL: B2 VL with S30A, E56S
With B3, the Ratio (pH 7.4/6.0) in [1] was determined as 4.2; in test [2], 3.4. Further, the EC50 in test [3] was determined as 1.57 µg/mL; in test [4], 0.32 µg/mL; in test [8], 0.371 µg/mL; in test [9], 1.09 µg/mL. The pH inflection point in test [10] worked out at 6.64 pH. The ratio (ph 7.4/pH 6.0) in [5] is 3.8.

B4: BAP133-2-02-12 (antibody, V domains shown)
VH: B2 VH
VL: AIQLTQSPSSLSASVGDRVTITCRALQGISNYLNWYQQKPGKAPKLLIYYTSSLHSGVPSRFSGSGSGTEFTLTISSLQPDDFATYYCQQYIKLPWTFGQGTKVEIK
On to B4, for which the values for the Ratio (pH 7.4/6.0) in test [1] and in [2] were 5.2 and 3.3, respectively. For the same molecule, the EC50 in [3] amounted to 3.63 µg/mL; in test [4] it was 0.676 µg/mL; in [8] it was 0.704 µg/mL; in test [9] it was 2.23 µg/mL. Moreover, the pH inflection point in test [10] came to 6.58 pH. The ratio (ph 7.4/pH 6.0) in test [5] turned out to be 7.02.

B5: BA-133-04-03 (antibody, V domains shown)
VH: B2 VH
VL: B2 VL with H55F, E56S
In the case of B5, the figures for the Ratio (pH 7.4/6.0) in test [1] and in [2] were 9.7 and 2.9, respectively. Moreover, the EC50 came out at 1.47 µg/mL in test [3], 0.147 µg/mL in test [4], 0.151 µg/mL in test [8] and 0.427 µg/mL in test [9]. For the same molecule, the ratio (ph 7.4/pH 6.0) in test [5] turned out to be 2.23.

B6: BA-133-04-01 (antibody, V domains shown)
VH: B2 VH
VL: B2 VL with G28W, E56S
As for B6, the Ratio (pH 7.4/6.0) in test [1] was 4.6; in test [2] it was 4.1. The half-maximal effective concentration (EC50) in test [3] is 1.66 µg/mL; in test [4], 0.324 µg/mL; in test [8], 0.36 µg/mL; in test [9] it was 1.34 µg/mL. Moreover, in test [10], the pH inflection point is 6.61 pH. Moreover, the ratio (ph 7.4/pH 6.0) in [5] amounted to 3.46.

B7: BAP133-2-03-03-SL (antibody, V domains shown)
VH: B2 VH
VL: B2 VL with E56S
Turning to B7, the Ratio (pH 7.4/6.0) in test [1] is 4.4. Further, the Ratio (pH 7.4/6.0) in test [2] amounted to 2.2. In [3], this molecule displayed an EC50 of 1.48 µg/mL. Further, the pH inflection point in test [10] stood at 6.8 pH. This molecule displayed an EC50 in [4] of 0.336 µg/mL. In test [5], the ratio (ph 7.4/pH 6.0) came out at 3.23. Also, in test [6], the IC50 of inhibition (cytotoxicity) of Colo205 cells that express CD46, pH 6.0 (test article ADC, CellTiter-Glo) was determined as 33.3 ng/mL; the IC50 of inhibition (cytotoxicity) of Colo205 cells that express CD46, pH 7.4 (test article ADC, CellTiter-Glo) amounted to 253 ng/mL; the Ratio (pH 7.4/6.0) of the cytotoxicity IC50 on Colo205 cells stood at 7.6. For the same molecule, in [7], the IC50 of in vitro cell killing of 293 cells expressing human CD46, pH 6.0 (test article ADC, CellTiter-Glo) stood at 20.6 ng/mL; the IC50 of in vitro cell killing of 293 cells expressing human CD46, pH 7.4 (test article ADC, CellTiter-Glo) came to 90.4 ng/mL; the Ratio (pH 7.4/6.0) of the killing IC50 on 293 cells expressing human CD46 was determined as 4.38. The EC50 in [8] was determined as 0.341 µg/mL. This molecule showed an EC50 in test [9] of 0.748 µg/mL.
